pKd: −log10 of the molar value.
Assays:
[1] = molecular target: porcine liver plasma membrane proteins eluted from apoA-I affinity chromatography; test: SPR (Biacore), 1.5 µg of proteins injected on the apoA-I sensor chip
[2] = molecular target: total solubilised porcine liver plasma membrane proteins; test: SPR (Biacore 3000, B1 chip), apoA-I immobilised by amine coupling, solubilised membrane proteins injected
[3] = molecular target: β-subunit of ATP synthase (F1 fraction) exposed on submitochondrial particles; test: binding of 5 µg/ml 125I-labeled HDL3 to submitochondrial particles, 2 h at 4 °C, no competitor; conditions: scale: ng HDL3 protein bound per mg of mitochondrial proteins
[4] = molecular target: β-subunit of ATP synthase (F1 fraction) exposed on submitochondrial particles; test: competition with 5 µg/ml 125I-labeled HDL3 on submitochondrial particles, 2 h at 4 °C

relative increase of binding against crude solubilised homogenate [1]	pKd [2]	100% specific binding [3]	IC50 (read off the curve) [4]	Substance
4 fold	9.00			lipid free-apolipoprotein A-I (free-apoA-I) (from UniProt P02647 25-267) (ligand)
		2050	800 nM	HDL3 (from UniProt P02647 19-267)

— patent publication US20040072368A1, “Lipoprotein receptor” (priority 2002, published 2004)
